According to US20200354449A1 (NBE THERAPEUTICS, published 2020):
Substitutions are numbered along the chain they refer to.

B1: GK-6B10 (antibody, human IgG1)
heavy: not shown
light: DIVMTQSPSTLSASVGDRVTITCRASQSIDNWLAWYQQKPGKAPKVLIYKASSLESGVPSRFSGSGSGTEFTLTISSLQPDDFATYYCQQYNSYSYTFGQGTKLEIKRTVAAPSVFIFPPSDEQLKSGTASVVCLLNNFYPREAKVQWKVDNALQSGNSQESVTEQDSKDSTYSLSSTLTLSKADYEKHKVYACEVTHQGLSSPVTKSFNRGECGGGGGSLPETG
notes: Human IgG1/kappa; the molecule is assigned by the clone name; not shown: Strep tag
B2: MK-7C3 (antibody, human IgG1)
heavy: not shown
light: B1 light with D1A, V3R, S28T, D30S, Y36F, T85S, K103R
notes: as for B1
B3: GK-5G12 (antibody, human IgG1)
heavy: not shown
light: EIVLTQSPSSLSASVGDRVTITCRASQGISNYLAWYQQKPGKVPKLLIYAASTLQSGVPSRFSGSGSGTDFTLTISSLQPEDVATYYCQKYNSAPYTFGQGTKLEIKRTVAAPSVFIFPPSDEQLKSGTASVVCLLNNFYPREAKVQWKVDNALQSGNSQESVTEQDSKDSTYSLSSTLTLSKADYEKHKVYACEVTHQGLSSPVTKSFNRGECGGGGGSLPETG
notes: as for B1
B4: GK-5A1 (mAb271) (antibody, human IgG1)
heavy: not shown
light: EIVLTQSPSTLSASVGDRVTITCRASQSISSWLAWYQQKPGKAPKLLIYKASSLESGVPSRFSGSGSGTEFTLTISSLQPDDFATYYCQQYNSYWTFGQGTKVDIKRTVAAPSVFIFPPSDEQLKSGTASVVCLLNNFYPREAKVQWKVDNALQSGNSQESVTEQDSKDSTYSLSSTLTLSKADYEKHKVYACEVTHQGLSSPVTKSFNRGECGGGGGSLPETG
notes: Human IgG1/kappa; not shown: Strep tag
B5: MK-3B12 (mAb272) (antibody, human IgG1)
heavy: not shown
light: B4 light with E1D, L4M, S93N, D104E
notes: as for B4
B6: GK-1E5 (mAb270) (antibody, human IgG1)
heavy: not shown
light: B4 light with E1D, V3Q, S93N, D104E
notes: as for B4
B7: GK-2G8 (antibody, human IgG1)
heavy: not shown
light: B4 light with L4M, S93N
notes: as for B1
B8: GK-21D3 (mAb399; mAb417) (antibody, human IgG1)
heavy: not shown
light: B3 light with E1D, V3Q, V15I, A84S, Y96W, L104V, E105D
notes: also called GK-21D3 (mAb417); MK-21D3; not shown: TwinStrep tag
B9: GK-22G12 (mAb418) (antibody, human IgG1)
heavy: not shown
light: DIVMTQSPSSLSASVGDRVTITCRASQGISNYLAWYQQKPGKVPKLLIYAASTLQSGVPSRFSGSGSGTDFTLTISSLQPEDVSTYYCQKHNRAPWTFGQGTKLEIKRTVAAPSVFIFPPSDEQLKSGTASVVCLLNNFYPREAKVQWKVDNALQSGNSQESVTEQDSKDSTYSLSSTLTLSKADYEKHKVYACEVTHQGLSSPVTKSFNRGECGGGGGLPETG
notes: Human IgG1/kappa; The light chain tag is printed G5LPETG, perhaps a misprint of G5SLPETG; also called MK-22G12; not shown: TwinStrep tag

molecular target: T1, mouse ROR2-TwinStrep (mouse, UniProt Q9Z138 34-403); experiment: ELISA, panel 'Coating: Mouse ROR2' (mouse ROR2-TwinStrep 2 µg/mL), 3-fold dilution series of antibody, HRP anti-human IgG, OD 490 nm
T1 construct: also called mROR2; murine ROR2; not shown: TwinStrep tag
T1 sequence (Q9Z138 34-403 V372M): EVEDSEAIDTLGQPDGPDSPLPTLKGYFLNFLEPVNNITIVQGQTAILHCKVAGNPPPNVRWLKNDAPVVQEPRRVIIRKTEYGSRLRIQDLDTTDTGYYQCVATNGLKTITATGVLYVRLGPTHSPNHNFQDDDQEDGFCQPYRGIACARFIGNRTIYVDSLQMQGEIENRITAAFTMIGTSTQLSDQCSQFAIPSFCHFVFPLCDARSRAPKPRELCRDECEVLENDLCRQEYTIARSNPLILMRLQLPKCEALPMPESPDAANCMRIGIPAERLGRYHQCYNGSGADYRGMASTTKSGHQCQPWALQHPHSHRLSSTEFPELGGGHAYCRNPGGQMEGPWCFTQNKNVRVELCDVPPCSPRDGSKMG
Experimental: (§1) Binding of antibodies to hROR2, mouse ROR2 (mROR2) and cynomolgus ROR2 (cROR2) was evaluated in an ELISA-based assay. For this, ELISA plates were coated with 50 μL of 2 μg/ml, in sodium bicarbonate coating buffer (0.1M Na₂CO₃, 0.1M NaHCO₃, pH 9.6), of: (a) an anti-human Fc (Jackson Immunoresearch, 109-006-098), (b) hROR2-TwinStrep, (c) cynomolgus ROR2-TwinStrep or (d) mouse ROR2-TwinStrep. Following 1-2-days incubation at 4° C., plates were washed with PBS supplemented with 0.05% (v/v) of Tween 20 and blocked with 150 μL of PBS supplemented with 0.05% (v/v) of Tween 20 and 3% of bovine serum albumin (BSA). Thereafter, 3-fold or 4-fold dilutions of purified antibodies starting at 0.5 or 2 μg/ml, respectively, in PBS supplemented with 1% (w/v) bovine serum albumin (BSA) and 0.05% (v/v) of Tween 20 were added. Following 1 h incubation at 37° C., plates were washed with PBS supplemented with 0.05% (v/v) of Tween 20 prior to addition of HRP-conjugated anti-human IgG (Jackson Immunoresearch, 109-036-008). Following further plate washing, plates were developed with 50 μL of Sigmafast OPD Tablet set (Sigma, P9187) and the reaction stopped by addition of 2M sulfuric acid. Plates were read on an ELISA plate reader (OD 490).

Row | binding result | Binder
1 | no binding | B1
2 | no binding | B2
3 | no binding | B3
4 | binds | B4
5 | no binding | B5
6 | no binding | B6
7 | no binding | B7

molecular target: T1, mouse ROR2-TwinStrep; experiment: ELISA, panel 'mouse ROR2' (mouse ROR2-TwinStrep 2 µg/mL coated), 4-fold dilutions of purified antibody from 2000 ng/mL, HRP anti-human IgG, OD 490 nm
Experimental: as §1

Row | binding result | Binder
8 | no binding (tested: 2000 ng/mL) | B8
9 | no binding (tested: 2000 ng/mL) | B9
